The values below come from a protein production outcome set (Wang et al. 2014).

The nature of this data set: label from the status in PepcDB records.
With “MSALSRWLLIPPVSARLSERYQGYRRHGASPFSAALGCLWTILAWIVFPLEHPRWQRIRDGHKALYPHINAARPRPLDPARYLIQTLWLVMISSTKERHEPRWRSFARLKDVRGRYHQWMDTLPERVRQKTTHLEKEKELGHLSNGARRFILGVIVTFSLILALICITQPFNPLSQFIFLLLLWGVALLVRRMPGRFSALMLIVLSLTVSCRYIWWRYTSTLNWDDPVSLVCGLILLFAETYAWIVLVLGYFQVVWPLNRQPVPLPKEMSQWPTVDIFVPTYNEDLNVVKNTIYASLGIDWPKDKLNIWILDDGGRESFRQFARHVGVHYIARATHEHAKAGNINNALKHAKGEFVAIFDCDHVPTRSFLQMTMGWFLKEKQLAMMQTPHHFFSPDPFERNLGRFRKTPNEGTLFYGLVQDGNDMWDATFFCGSCAVIRRKPLDEIGGIAVETVTEDAHTSLRLHRRGYTSAYMRIPQSAGLATESLSAHIGQRIRWARGMVQIFRLDNPLFGKGLKLAQRLCYLNAMFHFLSGIPRLIFLTAPLAFLLLHAYIIYAPALMIALFVIPHMVHASLTNSKIQGKYRHSFWSEIYETVLAWYIAPPTLVALINPHKGKFNVTAKGGLVEEKYVDWVISRPYIFLVLLNLLGVAAGVWRYYYGPENETLTVIVSLVWVFYNLVILGGAVAVSVESKQVRRAHRVEIAMPGAIAREDGHLFSCTVHDFSDGGLGIKINGQAQVLEGQKVNLLLKRGQQEYVFPTQVVRVTGNEVGLQLMPLTTKQHIDFVQCTFARADTWALWQDSFPEDKPLESLLDILKLGFRGYRHLAEFAPPSVKVIFRSLTALIAWIVSFIPRRPERQAAIQPSDRVMAQAQQ”, the protein production result was “failed”.
With “MSANVQEAANAAIEPASFVKVPMPEPPSSLQQLINDWQLIKHREGGYFKETDRSPYTMEVEKPVNGGSGNTEMVTRNQSTLIYYLLTPDSPIGKFHKNINRIIHILQRGKGQYVLVYPDGQVKSFKVGFDYKNGEVSQWVVPGGVFKASFLLPNEEFDNGFLISEVVVPGFDFEDHTFLKGEDELKHLVGPEKAAELAFLA”, the protein production result was “not failed”.
For “MSAQSSVQPELAVRQWRTPLELGFLGVVWGCSFLFMRVAAPKFGTVVLVEIRLALGALVLLPFLWLARERFPLHRWPMLAAIGVLNSALPFLLFAWGAQHAPAAVGAICNAMTVLFTALIAFLFFGERIGTRRALALLVGFIGVLVLATGKSAGLSVGPAALAGATASLLYGIGYNLVKRHMGDLPPAASAASTLGCSALLLAPLAWWQWPTTPVPAVAWACATALGVVCTGLAFLMYYRLIQRIGPARASTVTYLVPVFGALLAWSLLGEPLTWTMLVAAVLILGSVAFSQRAR” the value was “failed”; for “MSAQVPRELLQLREQVRRQPGDFVAWLMLADAELGMGVTAAGETAVQRALALHPGHPEAVARLGRVRWAQQRHAEAATLLQQASDLVPQHPGIALWLGHALEDAGQPEQAAAAYTRAHKLLPDEPYITAQLLNWRRRLCDWRELDSLAAQVRTAVTQGEAAVEPFAFLSEDASAAEQLACARTRAQAIASSVHPLPAATLRSRGTLQLGFVSNGFSAHPTGLLTVALFEALRRRQPDLQVQLFATSPDDGSDIRARLAQATRMHDVTALGHLATAQHIRNQGIDLLFDLRGWGGGGRPEVFALRPAPVQLNWLAYPGTSGAPWMDYVLGDAIALPTWLEPFYSEQVLRLPRAFQPSDTSRTVAEAPSRAQCGLPDHAVVLCCFNNSYKLNPRSMARMLAVLRAVPGSVLWLLSGPGEADARLRAAAQAQGVHAQRLVFMPKLPHPQYLARYRHADLFLDTHPYNAHTTASDALWAGCPVLTTPGQTFAARVAGSLNHRLGLDEMNVADDATFVAKAIELASDAEALRGVRAQLAEQRLRSGLFDMDGFADDLAALLRGIAQRRGWLGV”, “failed”.
The result for “MSASTSSHRPIKGILKNKSSSGSSVATSGQQSGGTIQDVKRKKSQKWDESSILAAHRATYRDYDLMKANEPGTSYMSVQDNGEDSVRDVEGEDSVRGVEGKEATDASDHSCEVDEQESSEAYMRKILLHKQEKKRQFEMRRRLHYNEELNIKLARQLMWKELQSEDNENEETPQGTNEEKTAAEESEEAPLTGGLQTQSCDP” reads “failed”; that for “MSAVATFSVALANEVATVRLMAEVALLIGPGDVVTLSGDLGAGKTAAARAMIRYLADDDALEVPSPTFTLVQTYDLPPYPLLHADLYRVEDPSELEEIGLSPLPDGTVALIEWPERAGAALPEDRIDIALSHRPALGPSARAAEITGHGKAVKQVERLAALRSFIETAGYADAERRHMPGDASTRSYARLQRGAESVILMNAPRRPDGPALYAGKSYSAAVHLAEDVRPFVAIGQGLRERGFSAPAIHHADLDAGFLITEDLGRIGFVEGDPPAPVVARYQAATDMLAALHAKPLPDHLPLSTRESYAVPTFDEAAMMIEVGLMPEWYLPDRGAPPSEALRVEFVALWRKLLAGIATAPRTWVLRDYHSPNLIWLEDRPGIERVGVIDFQDTVLGPAAYDVVSLLQDARIDVPEAAELSLLGRYVKARLAADPEFDAPGFARLYAVMSAQRNTRLLGTFARLNRRDGKPQYLKHQPRVWAYLARSLAHPALAEVRAWYRDHVPPPL”, “failed”.
Regarding “MSAWFELKQYGSGACRFLLKTKEAQTMLQSDRYPCRDSAEAALGLFRAHCASPERYVKKISSGGKPFFKLKSGKEVILVSHLYDSEATLESAISAIASAGTTERVEHIQL”, the protein production entry is on record as “failed”.
The result for “MSAYEAVRIRLDPTPRQTRLLESHAGGARFAYNLMLAHVRRQISLGEKPDWTLYAMRRWWNEWKDEIAPWWRENSKEAYGSAFEWLSQALRNWSDSRKGRRAGRRVGWPKYKSKRSSVPRFAYTTGSFGLIEDDPKALKLPRIGRVHCMENATERVHGRRIVRMTVSRHAGFWYAALTVERPTESVPAKNRKQKNRNRQVGVDLGVRTLATLSDGTTFPNPRNYVRTQRKLRHAQQSLSRRDRGMSHGCGSKRYNRALERVRRIHARIAAQRADNIGKLTTWLADNYSDISIEDLNVQGMSHNRRLAKHVLDADFREFRRQLEYKTARAGTRLHVIDRWYPSSKTCSNCGTVKAKLSLSERVYHCGKCGLVIDRDVNAAINIQVAGSAPETLNARGGSVRQTRLECGTMRHPAKREPSGGDSRVRLGAGLGNEAMQMTSL” reads “failed”.
For the sequence “MSAYIAPSQIAQRQLEYFNGKHVLVAGEVEDMFPLELTAHCESVEVFTSNYSYFRQIRHSDKIKSHFGSEFDVETQADMLLLYWPKAKAEAEYLLAMLMAKLGVNTEIVVVGENRSGVKSIEKMFKEYGPVNKYDSARRCSFYWGNCLNEPKPFNQEEWFKSYTVTLGEQSLTVKSLPGVFSHGEFDLGSRLLLETLPNLSGKVLDFGCGAGVLGAFMAKANPEIAIEMCDINAYAITSSQATLEANGLSGRVFASDIYSDTANDYRFIISNPPFHSGLDTNYNAAETLLGHAPQHLSNHGEMIIVANSFLKYPPIIENAFNNCETLNKTNKFSIYYAKKS”, the protein production result is recorded as “failed”.
For “MSAYIIETLIKILILVAVFSALGGFATYIERKVLAYFQRRLGPCYVGPFGLLQVAADGIKLFTKEDIIPQGANKFIFTLAPIIAMVSAFVSMAPIPFFPNFTLFGYEIKPLISDINIGFLFFLAVGSAGIYAPILAGLASNNKYSLIGSARATIQLLSFEVVSTLTILAPLMVVGSLSLVEINHYQSGGFLDWLVFKQPLAFVLFLIASYAELNRTPFDLLEHEAEIVAGYCTEYSGLKWGMFFLAEYAHLFAFSFVISIVFFGGFNAWGFIPGGIAILIKAGFFVFLSMWVRATYPHVRPDQLMDMCWKIMLPLALLNIVLTGIIILI” the value was “failed”; for “MSCGKPQETYSTSSILTREQFEIQHQEEDTIGEQVIFIDGVAYNSRGFRVCGAPNQRGGFCARFGQCPFHKDKVTTFKMSEETVSEFPRQLLTESCNLLQNNERKFKNAWKLDEHHRFLVALKKFGHGNWRQIADYVETRSASQCQSHAQKYYLRKRKLASNANLKRSIFDLIDEDTLSVEIGEEDTWNIIQKCPSKEAQGSVRSRSKTLQRMSTDSSVESYPIRELSTVDSELSTLQTYKQASFFIRIFRNGVFSHGVDLELPNSLASFFIKAAQLLDMSVATKAYTRSGFEISSLHEVCPGDILWISSGEEFIFPSPVQYIET”, “not failed”; for “MSDAAISGRREQGWLAGLGNWIPARFRRDIPVVPVVRLSGTIGAVTPLRPGLTLAGVAKLLDRAFSTRNAKAVALAINSPGGSPVQSRLIYLRIRALAAEKKLPVYAFVEDVAASGGYMIACAADEIYCDPSSILGSIGVVGGGFGFQELIRKIGVERRLYTAGERKAQLDPFLPEDPQEVARLKVLQQEIHALFIALVKESRGTRLKGEESKLFTGEYWAGATSVSLGLADSIGDLRAVLRGKFGDKVRTPLISPPTGLLANLSRKSSGAGASLDGVAALPESMITALETRAIWAKYGF”, “failed”.
The result for “MSDEWKSETPKANDDKSWKLLEKAVLAGVQEQRRARRWGIFFKSLTFIYLFVVLLAFSPFGSLEKSASRSGSHTALIEVKGMIADDEPASADNIVTALRAAFKDEGTKGIVLRINSPGGSPVQSGYIYDEIRRLRGEHPNVKVYAVISDLGASGAYYIASAADQIYADKASLVGSIGVTAASFGFVGTMEKLGVERRVYTSGEHKSFLDPFQPQKPEETQFWQQVLDTTHKQFIDSVKKGRGDRLKVEGHPELFSGLVWSGEQALQLGLIDGLGNASYVAREVVKEKKIEDYTVQESPFDRFAKKFGASVAERLALWMGWQGPVLRLEHHHHHH” reads “failed”; that for “MSDIELLETLAGTDQPRVMATIIHVEGSSYRKEGAMMLFQEDGTQVGLLSGGCLETDLTIKAQKVWQEQLPRTVVYDLSSEDDLSWGQGSGCNGTISVLLEPVDLKLRQHLKRVYDYLCAGKSVFHVKKLSTSGAVLEYAFILDESVYFGEWHSGHPVEWIRKIDENEEPLMFTHIYSPKERLIIFGAGPDVPPLVTFASNVGFYTVVTDWRPNQCEKHFFPDADEIIVDFPADFLRKFLIRPDDFVLIMTHHFQKDQEILHFLLEKELRYIGILGSKERTRRLLQNRKPPDHLYSPVGLSIDAQGPEEIAISIVAQLIQLIRSRKQASSPFSYLFQPESCKH”, “not failed”; that for “MSDIPSDLHYTAEHEWIRRSGDDTVRVGITDYAQSALGDVVFVQLPVIGTAVTAGETFGEVESTKSVSDLYAPISGKVSEVNSDLDGTPQLVNSDPYGAGWLLDIQVDSSDVAALESALTTLLDAEAYRGTLTE”, “not failed”.
For “MSDIVLEVQSLHVYYGAIHAIKGIDLKVPRGQIVTLIGANGAGKTTTLSAIAGLVRAQKGKIIFNGQDITNKPAHVINRMGIALVPEGRRIFPELTVYENLMMGAYNRKDKEGIKRDLEWIFSLFPRLKERLKQLGGTLSGGEQQMLAIGRALMSRPKLLMMDEPSLGLAPILVSEVFEVIQKINQEGTTILLVEQNALGALKVAHYGYVLETGQIVLEGKASELLDNEMVRKAYLGVA” the value was “not failed”; for “MSDLEVQVPTAFDPFADANAEDSGAGTKEYVHIRVQQRNGRKSLTTVQGLKKEYSYSKILKDLKKEFCCNGTVVQDSELGQVIQLQGDQRKNVSTFLVQAGLVKKDNIKIHGF”, “failed”.
Consider “MSDLGAYIHAVETASSASALREAVIQLAQQNSTAAIPTLIAVLGYNNPAAAQAAVEGLIALGDAVVEPLLAQLDGYNYGARAYGVRVLGSIGHPAALQVLLAAAQSDFAPSVRRAATKALGTLRWQLIPEETVREAQLKEALAVLQRNSKAADWAVRYAVGVALDYLHQQAAARGIREAVRSLLNHLSDRDPDIVVRSRCQLALQRDSLSMHT”, for which the protein production result was “failed”.
The result for “MSDNSKTRVVVGMSGGVDSSVTALLLKEQGYDVIGIFMKNWDDTDENGVCTATEDYKDVVAVADQIGIPYYSVNFEKEYWDRVFEYFLAEYRAGRTPNPDVMCNKEIKFKAFLDYAITLGADYVATGHYARVARDEDGTVHMLRGVDNGKDQTYFLSQLSQEQLQKTMFPLGHLEKPEVRRLAEEAGLSTAKKKDSTGICFIGEKNFKNFLSNYLPAQPGRMMTVDGRDMGEHAGLMYYTIGQRGGLGIGGQHGGDNAPWFVVGKDLSKNILYVGQGFYHDSLMSTSLEASQVHFTREMPEEFTLECTAKFRYRQPDSKVTVHVKGEKTEVIFAEPQRAITPGQAVVFYDGEECLGGGLIDNAYRDGQVCQYI” reads “not failed”.
